From the nanobody polyreactivity screen of Harvey et al. (2022)

Test: yeast display, Sf9 membrane polyspecificity reagent, FACS + sequencing; frameworks hold sequencing errors
Method in brief: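 Galactose-induced (36–48 hours) yeast carrying a synthetic nanobody display library were exposed to 10% biotinylated, detergent-solubilized Sf9 membrane reagent at 4 °C for 1 hour. FACS followed streptavidin microbead enrichment, using low and high (top ~1%) gates for expression (anti-HA) and reagent binding (streptavidin). Colony PCR, MiSeq 2 × 250 sequencing and CDR-length filtering followed. Labels for polyreactivity reflect the gate of origin.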

Sequence	polyreactivity (PSR sort gate)
QVQLVESGGGLVQAGGSLRLSCAPSGNIFETYAMGWYRPAPGKERELVAVITRGGSTYYADSVKGRFTISRDNAKNTVYLQMNSLKPEDTAVYYCARDAYDDWYGLTDDKSDYWGQGTQVTLSS	low polyreactivity
QVQLVESGGGLVQAGGSLRLSCAPSGRIFNAYAMGWYRQAPGKERELVAAITVSGTRTYYADSVKGRFTISRDNAKNTVYLQMNSLKPEDSAVYYCNAGRGGVLDYGYWGQGTQVTVSS	high polyreactivity
QVQLVESGGGLVQAGGSLRLSCAPSGRIFSINAMGWYRQAPGKERELVAAITSGGSTKYADSVKGRFTISRDNAKNTVYLQMNSLKPEDTAVYYCAAAPGYLYWKVDYNYWGQGTQVTVSS	high polyreactivity
QVQLVESGGGLVQAGGSLRLSCAPSGRIFTHNVRGWYRQAPGKERELVAAISASGGSTYYADSVKGRFTISRDNAKNTVYLQMNSLKPEDTAVYYCNAEWAVRYPGYDYWGQGTQVTVSS	low polyreactivity
QVQLVESGGGLVQAGGSLRLSCAPSGRIFVLYTMGWYRQAPGKERELVAAIRGGGSTNYADSVKGRFTISRDNAKNTVYLQMNSLKPEDTAVSYCAARYYREYDYWGQGTQVTVSS	high polyreactivity
QVQLVESGGGLVQAGGSLRLSCAPSGRIFYSNDMGWYRQAPGKERELVAAIRDSAGSTRYADSVKGRFTISRVNAKNTVYLQMNSLKPEDTAVFYGHKDYVSIYFEYLDDYWGQGTQVTVSS	low polyreactivity
QVQLVESGGGLVQAGGSLRLSCAPSGRIVGKYVMGWDRQAPRKERELVAGICWSAGSTYYADSVKGRFTISRDNAKNTVYLQMNSLKPEDTAVYYCAAGLEGGSDYWGQGTQVTVSS	low polyreactivity
QVQLVESGGGLVQAGGSLRLSCAPSGRIYATYAMGWYRQAPGKDSELVAAISDSGGRTYYADSVKGRFTISRDNAKNTVYLQMKSLKPEVNAVYYCAAKNGDRYARGYWGQGTQVNVSS	high polyreactivity
QVQLVESGGGLVQAGGSLRLSCAPSGRTFYINAMGWYRQAPGKEREFVAAITTSGGGTYYADSVKGRFTISRDNAKNTVYLQMNSLKPEDTAVYYCNTRSRRGKDGRYDYWGQGTQVTVSS	high polyreactivity
QVQLVESGGGLVQAGGSLRLSCAPSGSIFDFNTMGWYRQAPGKERELVAAISQRTGRTYYADSVKGRFTISRDNAKNTVYLQMNSLKPEDTAVYYCARTDRRLGAHQGDYWGQGTQVTVSS	high polyreactivity
QVQLVESGGGLVQAGGSLRLSCAPSGSIFGINARAWYRQAPGKERELVAAISSGGSTNNADSVKGRFTISRDNAKNTVYFQMNSLKPEDTAVYYCAARLYYVRYNYWGQGTQGTVSS	high polyreactivity
QVQLVESGGGLVQAGGSLRLSCAPSGSIFQFYAMGWYRQAPGKESELVAGINTSGGSTYYADSVKGRFTISRDNAKNTVYLQMNSLKPEDTEVYYCMARSRYDTGRQRGYDYWGQGTQVTVSS	low polyreactivity
QVQLVESGGGLVQAGGSLRLSCAPSGSIFRYYAMGWYRQAPGKERELVAAISWSGTSTYYADSVKGRFTISRDNAKNTVYLQMNSLKPEDTAVYYCNKVIPANIRRSYDYWGQGTQVTVSS	high polyreactivity
QVQLVESGGGLVQAGGSLRLSCAPSGSIFSAYAMGWYRQAPGKERELVAAITRGTSTNYADSVKGRFTISRDNAKNTVYLQMNSLKPEDTAVYYCAAEYGWYYVNFYYWGQGTQVTVSS	low polyreactivity
QVQLVESGGGLVQAGGSLRLSCAPSGSIVNRYALGWYRQAPGKEREFVAAITRRGGYTYYADSVKGRFTISRDNAKNSVYLPLNSLKPEDTAVYYCAAPFYYPAGLLYYENNYWRQGTQVTVSS	high polyreactivity
QVQLVESGGGLVQAGGSLRLSCAPSGSTFFSKTMGWYRQAPWKERELVAAINDSGTSTYYADSVKRRFTISRDNSKKTVYLQMNSLKPEDTAVYYCAAYPSGWYDYWGQGTQVTVSS	low polyreactivity
QVQLVESGGGLVQAGGSLRLSCAPSGSTFGYNDMGWYRQAPGKERELVAAIDTGVSTNYADSVKGRFTISRDNAMNTVYLQMNSLKPVDTAVYYLAKSGSAYWHSGWSVGFDYWGQGTQVTVSS	low polyreactivity
QVQLVESGGGLVQAGGSLRLSCAPSGSTFIPNPMGWYRQAPGKERELVAAISRRGGSTNYADSVKGRFTISRDNAKNTVYLQMNSLKPEDTALYYCAAVSPRRYRYDYWGQGPQVTVSS	low polyreactivity
QVQLVESGGGLVQAGGSLRLSCAPSGSTFRPYGMGWYRQAPCKETELVAAINSGDSTYYADSVKGRFTISSDNAKNTVYLQMNSLKPEDTAVYYCAAGYYIRGRYGYWGQATQVTVSS	high polyreactivity
QVQLVESGGGLVQAGGSLRLSCAPSGSTFRRNTMGWYRQAPGKARELVAGISSSGGSTYYADSVKGRFTISRDNAKNTVYLQMNSLKPEDTAVYYCAARFYVSYVGYNYWGQGSQVTVSS	high polyreactivity
QVQLVESGGGLVQAGGSLRLSCAPSGSTFRVYGMGWYRQAPGKETELVAVIRWRGGRTSYADSVKGRFTISRDNAKNTVYLQMNSLKPEDTAVYYCAAAYWNDWSQYDYWGQGTQVTVSS	high polyreactivity
QVQLVESGGGLVQAGGSLRLSCAPSGSTFYPNAKGWYRQAPRKERELVAAISRSGGSTYYADSVKGRFTISRDNAKNTVYLQMNSLKPEDTAVYYCAADGRSPARYDYWGQGTQVTVSS	low polyreactivity

Sequence	polyreactivity (PSR sort gate)
QVQLVESGGGLVQAGGSLRLSCAPSGSTFYVNAMGWYRQAPGKEREFVAAITWNSGSTYYADSVKGRFTISRDNAKNTVYLQMNSLKPEDTAVYYCAADGYHYVTYLVSYGYWGQGTQVTVSS	low polyreactivity
QVQLVESGGGLVQAGGSLRLSCAPSGSTFYYYAMGWYRQAPGKERELVAAITWSGGSTRYADSVKGRFTISRDNAKNTVYLQMKSLKPEDTAVYYCAAYYRKTGFEYWGQGSQVTVSS	high polyreactivity
QVQLVESGGGLVQAGGSLRLSCAPSGSTLYFYAMGWYRQAPGKERELDADITWSGGSTYYADSVKGRFTISRDNAKNTVYLQMNSLKPEDTAVYYCNADDWSTYWYGYPGYVYWGQGTQVTVSS	high polyreactivity
QVQLVESGGGLVQAGGSLRLSCAPSGSTYLSYAMGWYRQAPGKERELVAAITYSGGRTYYAESVKGRFTISRDNAKITVYLQMNSLKQEDTAVYYCAATGVFRDEYWGQGTQVTVSS	low polyreactivity
QVQLVESGGGLVQAGGSLRLSCAPSGYIFEIYAMGWYSQEPGKERELVAAISTRGGRTYYADSVKGRFTISRDKAKNTVYLQMNSLKPEDTAVYYCAAGFPYKFTYVGGYNHWGQGTQVTVSS	low polyreactivity
QVQLVESGGGLVQAGGSLRLSCAPSGYIIRQYAMGWYRQAPGKEREFVAAISQTGGSTYYADSVKGRFTISRDNAKNTVYLQMNSLKPEDTAVYYCAARYRGQRYRKLDYWGQGTQVTVSS	high polyreactivity
QVQLVESGGGLVQAGGSLRLSCAPSGYTFGKYAMGWYRHAPVKERELVATIRSGGSTNYADSVKGRFTISRDNAKNTVYLQMNSLKPEDTAVYYCNKRYRYQYGYDFWGQGTQVTVSS	high polyreactivity
QVQLVESGGGLVQAGGSLRLSCAPSVRIFGTNAMGWYRQAPGTERELVADITSGGSTNYADSVKGRFTISRDNAKNTVYLQMISLKPEDTAVYYCAADVIGDLRWYRDEYWGQGTQVTVSS	low polyreactivity
QVQLVESGGGLVQAGGSLRLSCASSGFIFPLYAMGWYRKAPGKERELVAAITWRGDTTSYADSVKGRFTISRDNAKNTVYLLMIRLKPEDNAVYYCNARGYFGWYAMDYWGQGTQVTVSS	high polyreactivity
QVQLVESGGGLVQAGGSLRLSCASSGFTFDINAMGWYRQAPGKERELVAVITWNDGSTYYADSVKGRFTISRDNAKNTVYLQMNSLKPEDTAVYYCAAEYADSWSAFDWNYYYWGQGTQVTVSS	high polyreactivity
QVQLVESGGGLVQAGGSLRLSCASSGFTFFRNAMGWYRQAPGKERELVAAISGSGGRTYYADSVKGRFTISRDNAKNTVYLQMNSLKLEDTAVYYCAAVPVDPGYDYWGQVTQVTVSS	high polyreactivity
QVQLVESGGGLVQAGGSLRLSCASSGFTFHSYAMGWYRQAPGKERELVAAISTGGTRTYYADSVKGRFTISRDNAKNTVYLQMNSLKTEDTAVYYCAADLYRGVRIYSKYDSWGQGTQVTVSS	high polyreactivity
QVQLVESGGGLVQAGGSLRLSCASSGFTFPYYAMGGYRQAPGKERELVAAISWGGGSTYYADSVKGRFTISRDNAKNTVYLQMNSLKPEDTAVYYCNAYEYLSAGYDYWGQGTQVTVSS	low polyreactivity
QVQLVESGGGLVQAGGSLRLSCASSGFTFSRNVMGWYRQAPGKETELVADITLSGASTYYADSVKGRFTISRDNAKNPDYLQMNSLKPEDTAVYYCAADPYHWRWGWRHVYWGQGTQVTVSS	low polyreactivity
QVQLVESGGGLVQAGGSLRLSCASSGFTFTLYARGWYRQAPGKEWELVAAINRSGGRTYYADSVKGRFTISRDNAKNTVYLQMNSLKPEDTAVYYCNKYPWPNYYDGEYDYWGQGTQVTVSS	high polyreactivity
QVQLVESGGGLVQAGGSLRLSCASSGFTFYYNAMGWYRQAPGQERELVASITRSGGRTYYSDSVKGRFTISRDNAKNTVYLQMNSLKPEDTAVYYCARRYPGGYYWGQGTHVTVSS	high polyreactivity
QVQLVESGGGLVQAGGSLRLSCASSGGIFYRNAMGWYRQAPGKERELVAVITSSGGSTYYADSVKGRFTISRDNAKNTVYLQMNSLKPVDTAVYYCAAESVAAYYWGQGTQVTVSS	high polyreactivity
QVQLVESGGGLVQAGGSLRLSCASSGIILYYYAMGWYRQAPGKERELVAAIDSGDSTDYADSVKGRFTISRDNAKNTVYLQMNSLKPEDTAVYYCAADSPVDEYYHWGQGTQVTVSS	low polyreactivity
QVQLVESGGGLVQAGGSLRLSCASSGITFRYYAMGWYRQAPGKERELVAAISDGGSTNYADSVKGRFTISRDNAKNTVYLQMNSLKPEDTAVYYCAADYRYLFDYWGQGTQVTVSS	high polyreactivity
QVQLVESGGGLVQAGGSLRLSCASSGITLAGNAMGWYRQAPGKERELVAAISASGGRTSYADSVKGRFSISRDNAKNTVYLQKNSLKPEDTAVYYCNTRRYPTRPSYDYWGQGTQVTVSS	high polyreactivity
QVQLVESGGGLVQAGGSLRLSCASSGLTFYKNAMGWYRQAPGKERELVAVISSSGGSTYYADSVKGRFTISRDNAKNTVYLQMNSLKPEDTAVYYGGRDLYTEYRWGRLTYDYWGHGTQVTVSS	low polyreactivity
